# Source: the nanobody polyreactivity screen of Harvey et al. (2022)
# Experiment: yeast display, Sf9 membrane polyspecificity reagent, FACS + sequencing; frameworks hold sequencing errors
# Summary of the method: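 Using colony PCR, genes from sorted yeast display clones were amplified, then sequenced on MiSeq at 2 × 250 and filtered by CDR length. The clones had been stained with 10% biotinylated, detergent-solubilized Sf9 membrane reagent for 1 hour at 4 °C and sorted by FACS into low and high (top ~1%) gates on anti-HA and streptavidin fluorescence. Polyreactivity labels come from the gate of origin.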
row,Sequence,polyreactivity (PSR sort gate)
1,QVQLVESGGGLVQAGGSLRLSCAASGSTLSSNAMGWYRQAPGKERELVAAINRRGGTYYADSVKGRFTISRDNAKNTVYLQMNSLKPEDTAVYYCAAASPYHEYDYWGQGTQVTVSS,low polyreactivity
2,QVQLVETGGGLVQAGGSLRLSCAASGRNYTYTMGWYRQAPGKERELVAAITYSGGSTYYADSVKGRFTISRDNAKNTVYLQMNSLKPEDTAVYYCAAVGRWPRYYYWGQGTQVTVSS,high polyreactivity
3,QVQLVESGGGLVQAGGSLRLSCAASGRTFAAYAMGWYRQAPGKERELVAAITSGGGTYYADSVKGRFTISRDNAKNTVYLQMNSLKPEDTAVYYCAADYISVYGYEYYYWGQGTQVTVSS,high polyreactivity
4,QVQLVESGGGLVQAGGSLLLSCAASGIIFRYYAMGWYRQAPGKERELVADISSDGGTYYADSVKGRFTISLDNATNTVYLQMNSLKPEDTAVDYCAADYQFYWHYYYWGQGTQVTVSS,high polyreactivity
5,QVQLVESAGGLDQAGGSLPLSCAASGRIFRYNAMGWYRQAPGKERELVSAITWNGASTFYADSVKGRFTISRDNAKNSVYLLMNSLKPEDTAVYYCAYVRDFSGYWLWSYNLYDYWGQGTKVTVSS,high polyreactivity
6,QVQLVESGGGLFQPGGILRLSFAASGSTIIDYAMGWYRQEPWKERELVASITWSGGSTYYADSVKGRFTFSRDNAKNTVYLQINCLKPVDSAVYYCNSDVNVGLEVLIVYEYDYWGQGTQVTVSS,low polyreactivity
7,QVQLVESGGSLVQAGGSLRLSCAASGRTFGYNGMGWYRQAPGKERELVAAITNDGGNTNYADSVKGRFTISRDNAKNTVYLQMNSLKPEDTAVYYCNADRTQDRNPYTYATFDYWGQGTQVTVSS,low polyreactivity
8,QVQLVESGGGLVQAGGSLRLSCAASGSILNNYAMGWYRQAPGKERELVAAISSSGGTNYADSVKGRFTISRDNAKNTVYLQMNSLKPEDTAVYYCNADVLDGGYDYWVQGTQVTVSS,low polyreactivity
9,QVQLVESGGGLVQAGGRLRLSCAASGIIFSYYAMGWYRQAPGKERELVAAISWGGGSTYYADSVKGRFTISRDYAKNTVYLQMNSLKPEDTAVYYCAADYFDFFTGYEMGYWGQGTKVTVSS,high polyreactivity
10,QVQLVESGGGLVQAGGSLRLSCAASGRILGVNAMGWYRQAPGKERELVAAINWNGGSTYYADSVKGRFTISRDNAKNTVYLQMNSLKPEDTAVYYCAAERSLYYVYSREYWGQGTQVTVSS,low polyreactivity
11,QVQLVESGGGLVQAGGSLRLSCAASGSIFTYYAMGWYRQAPGKEREFVAAISRRGGSTYYADSVKGRFTISRDNAKNTVYLQMNSLKPEDTAVYFCAADRWTRTLVKVIGRYYYCGQGTQVTVSS,high polyreactivity
12,QVQLVESGGGLVQAGGSLRLSCAASGRIFQRNAMGWYRQEPRKEREFVAAITKSGGGTYADSVKGRFTISRDNAKNTVYLQMNSLKPEDTAVYFCAADSRGEDYYYWGQGTQVTVSS,high polyreactivity
13,QVQLVESGGGLLQAGGSLRLSCAASGRTFGYYAMGWYRQAPGKERELVAAISKSGGRTYYADSVKGRFTISRDNAKNTVYLQMNSLKPEDTAVYYCAADGGAIVPYYENYYWGQGTQVTVSS,high polyreactivity
14,QVQLVESGGGLVQAGGSLRLSCAASGFTFGIYAMGWYRQAPGKERELVAAITKGGGSTYYADSVKGRFTISRDNAKNTVYLQMNSLKPEDTAVYYCAARRVSERRVGYWGQGTQVTVSS,high polyreactivity
15,QVQLVESGGGLVQPGGSLRLSCAASGRTFRWYAMGWYRQEPGKERELVAAISAGGGSTYYADSVKGRFTISRDNAKYTVSLQLTRVKPEDTAVYYCNRVAWNYGFGSSAYGYWGQGTQVTVSS,high polyreactivity
16,QFQHVESGGGLVQARGSRRLSCAASGRTLYRNAMGWYRPARGKERELVAAITSGGHTKYADSVKGRFTISRDNAKNTVYLQMNSLKPVDTAVYYCNARYIRYSVGFLYTRYDYCGQGTQVTVSS,high polyreactivity
17,QVQLVESGGGLVQAGGSLRLSCAASGNIFPYNAMAWYRQAPGKERELVATISSGGSTYYADSVKGRFTISRDNAKNTVYLQMNSLKPEDTAVYYCAARGRYPYRYGYWGQGTQVTVSS,high polyreactivity
18,QVHLVESGGVLVQAGGSLRLSCAASGSPFTKYAMGWYRQAPGKERELVAAFTGGGGSTYYADSVKGRFTISRDNAKNTVYLQLNSLKPEDSAVYYCAAKVALSRFRQWSYDYWGQGTQVTVSS,low polyreactivity
19,QVQLVESGGGLVQAGGSLRLSCAASGFIFSLYAMGWYRQAPGKERELVAGISESGGSTYYADSVKGRFTISRDNAKNTVYLQMNSLKPEDTAVYYCNADDTVYFIKAGDYWGQGTQVTVSS,high polyreactivity
20,QVQLVESGGGLVQAGGSLRLSCAASGSIFINNGMGWYRQAPGKERELVAAINGGDGSTYYADSVKGRFTISRDNAKNTVYLQMNSLKPEDTAVYYCAKDYTIGYTYQYDYWGQGTQVTVSS,low polyreactivity
21,QVQLVESGGGLVQAGGSLRLSCAASGRIFRRYAMGWYRQAPGKERELVAAISSRGGRTYYADSVKGRFTISRDNAKNTVYLQMNSLKPEETAVYYCNARSFRWCRWLRLPFNYWGQGTQVTVSS,high polyreactivity

row,Sequence,polyreactivity (PSR sort gate)
1,QVQLVESGGGLVQAGGSLRLSCAASGRIFPYYAKRWYRQAPGKERELVAAITTRGGSTYDADSVKGRFTISRDNAKNTVYLQMNSLKPEDTAVYYCAAVTFGRMEYCGQGTQVTVSS,low polyreactivity
2,QAQLVESGGGLVQSGGSLRLSCAASGSIFRPYAMGWYRQAPGKERELVAAISSSGGGTYYADSVKGRFTISRDNAKNTVYLQMNILKPEDTSVYLYGSWGQGTQVNVSS,low polyreactivity
3,QVQLVESGGGLVQAGGSLRLSCAASGITFWSYAMGWYRQAPGKERELVAAITWRGGSTYYADSVKGRFTISRDNAKNTVYLQMNSLKPEDTAVYYCNAVYRRDGYNYWGQGTQVTVSS,high polyreactivity
4,QVQLVESGGGLVHAGGSLRLSCAASGRTFGIYTMGWYRQAPGKERELVASTYYADSVKGRFTISRDNAKNTVYLQMNSLKPEDTAVYYCNVERLKKSQVWYGYPNDYWGQGTQVTVSS,low polyreactivity
5,QVQLEESRGCLVQAGGSLRLSCAASGSIFYVYAMGWYRQAPGKERELVAAINTSGGSTYADSVMGRFTISRDNAKNTVYLQMNILIPEDNAFYYCAADGYYEYTWGEYDSWGQGTQVTVSS,low polyreactivity
6,QVQLVESGGGLVQAGGSLRLSCAASGLIFHQYAMGWYRQAPGKERELVAAITRSGTRTYYADSVKGRFTISRDNAKNTVYLQMNSLKPEDTAVYYCAAGDTQGVSMDYWGQGTQVNVSS,high polyreactivity
7,QVQLEESGGGLVQAGGSLRLSCAASGSNAMGWYRQAPGKERELVAVITSRGGSTYYADSVKGRFTISRDNAKNTVYLQMNSLKPEDTAVYYCAKAWYVRGTWSVHVRYGYWGQGTQVTVSS,high polyreactivity
8,QVQLVESGGGLVQAGGSLRLTCAASGFTFARYAMGWYRQAPGKERELVAAISSNDNTSYADSVKGRFTISRDNAKNTVYLQMNSLKPEDTAVYDCAKKRYHWYGRYYYWGQGTQLTVSS,high polyreactivity
9,QVQLVESGGGLVQAGGSLRLSCAASGSIFYSYAMGWYRQAPGKERELVAAISWDASTYYADSVKGRFTISRDNAKNTVYLQMKSLKTEDTAVYYCNADIPYYFVFDAYDYWGQGTQVTVSS,low polyreactivity
10,EVHLLESGGGLVQAGGSLRLSSAASGFTFACNAMGWYRQAPGKERELVAALTWGDNSTYYADSVKGRFTISRDNAKNTVYLQMNSLKQEDTAVYYCGARVTHWYYLFGYDYWGQGTQVTVSS,low polyreactivity
11,QVQLQESGGGLVQACGSQRLSCAASGSISEGQDMGRYRRAPRKEREFVAGIAPGATTYYADSVKGRFTISRDNAKNTVYLQMNSLKPEDTAVYYCAARSVTETDHDYWGQGTQVTVSS,low polyreactivity
12,QVQLVESGGGLVQAGGSLRLSCAASGSIFKGYAMGWYRQAPGKERELVAAISSSGGSTYYADSVKGRFTISRDNAKNTVYLQMNSLKPEDTAVYYCNTDRYYTYDYWGQGTQVTVSS,low polyreactivity
13,QVQLVESGGGLVQAGGSLRLSCAASGITLYLNAMGWYRQAPGKERELVAAITASGGSTYADSVKGRFTISRDNAQNTVYLQMNSLKPEDTAVYYCAADVIYEYYFTFGVGYYEYDYWGQGTQVTVSS,low polyreactivity
14,QVQLVESGGGLVQAGGSLRLSCAASGFNFIDYAMGWYRQAPGKERELVAAITSSGGRTYYADSVKGRFTISRDNAKITVYLQMTSLKPEDTAVYYCAARLPGYVRIYDYWGQGTQVTVSS,high polyreactivity
15,QVQLVESGGGLVQAGGRLRLSCAASGRTFYVYAMGWYRQAPGKERELVAAISWTGGSTYYADSVKGRFTISRDHAKNTVYLQMNSLKPEDTAVYDCAVDVYRRDYVAYEYWGQGTQVTVSS,high polyreactivity
16,QVQLVESGGGLVQAGGSLRLSCAASGSTIGPYAMGWSRQAPGKERELVAAITISGDSTNYADSVKGRFTISRDNAKNTVYLQMLSLKPEDTAVYYCAAAYYWLQSWYDYWGQGTLVTVSS,low polyreactivity
17,QVQLVESGGGLVQAGGSLRLSCAASGRIFDYYAMGWYRQAPGKERELVAAISLIGASTYYADSVKGRFTISRDNAKNSVYLQMNSLKQEDPAVDYCAAQYAFEVPGYYREDYYWGQGTQVTVSS,low polyreactivity
18,QVQLVESGGGLDQAGGSLRLSCAASGSTFHYYAMGWYRQPHGKERELVAVISSGGSTYYADSVKGRFTISRDNAKNTVYLQMNSLKPEDTAVYYCAAEYFLLAGKGYNGGDYYVYDYWGQGTQVTVSS,low polyreactivity
19,QVQLVESGGGLVQAGGSLRLSCAASGRIFDSNDMGWYRQAPGKEREFVAAITSSGGSTYYADSVKGRFTISRDNAKNTVYLQMNSLKPEDTAVYYCAARVYPRPQSYDKRYYWGQGTQVTVSS,low polyreactivity
20,QVQLVESGGGLVQAGGSLRLSCAASGLTVLQNAMGWYRQAPGKEWELVAAINIGTNTYADSVKGRFTSARDNAKNTVYLQMNSLKPEDTAVYYCATVDTVLVRPVGYDYWGQGTQVTVSS,low polyreactivity
